Measured values from FireProtDB (doi:10.1021/bi00164a007).

Details: Saccharomyces cerevisiae (strain ATCC 204508 / S288c), CD, reversible: yes; for denaturant m value / denaturant midpoint (higher = more stable) / unfolding free energy: 27 °C, GdnHCl
[1] = pH 6, Thermal, Sodium phosphate 50 mM
[2] = pH 7.2, Potassium phosphate 50 mM
[3] = pH 4.6, glycine 40 mM, structure 1YCC
[4] = pH 4.6, Thermal, Sodium acetate 50 mM, structure 1YCC
[5] = pH 6, Thermal, Sodium phosphate 50 mM, structure 1YCC
[6] = pH 7.2, Potassium phosphate 50 mM, structure 1YCC

Cytochrome c isoform 1 wild type, P00044, sequence (P00044 whole entry, canonical isoform): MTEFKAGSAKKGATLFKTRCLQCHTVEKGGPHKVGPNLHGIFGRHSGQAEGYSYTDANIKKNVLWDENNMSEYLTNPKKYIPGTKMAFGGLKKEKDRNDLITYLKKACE
Cytochrome c isoform 1 V26C, P00044, sequence (P00044 whole entry V26C, canonical isoform): as the sequence (P00044 whole entry, canonical isoform) above, with V26C counted along it

Cytochrome c isoform 1 wild type, P00044
Tm [1]: 51.7 °C | unfolding enthalpy (van 't Hoff) [1]: 84.5 kcal/mol | denaturant m value [2]: 4.6 kcal/mol/M | denaturant midpoint (higher = more stable) [2]: 0.9 M | unfolding free energy [2]: 4.1 kcal/mol

Cytochrome c isoform 1 V26C, P00044
denaturant m value [3]: 2.7 kcal/mol/M | denaturant midpoint (higher = more stable) [3]: 1.1 M | unfolding free energy [3]: 2.9 kcal/mol | Tm [4]: 53.4 °C | unfolding enthalpy (van 't Hoff) [4]: 64.5 kcal/mol | Tm [5]: 58.5 °C | change of melting temperature, mutant - wild type (higher = more stable) [5]: 6.8 °C | unfolding enthalpy (van 't Hoff) [5]: 63.8 kcal/mol | denaturant m value [6]: 2.6 kcal/mol/M | denaturant midpoint (higher = more stable) [6]: 1.2 M | unfolding free energy [6]: 3 kcal/mol
